One block for each binder: values may come before it.
Key:
mouse FcγRII [1] = molecular target: T1, mouse FcγRII (mouse, UniProt P08101 30-210); experiment: SPR (Biacore T200); KD of H237-MB630/MRAL-k0 / KD of variant
T1 construct: Extracellular domain with C-terminal His tag; also called mFcγRII; mFcgRII
T1 sequence: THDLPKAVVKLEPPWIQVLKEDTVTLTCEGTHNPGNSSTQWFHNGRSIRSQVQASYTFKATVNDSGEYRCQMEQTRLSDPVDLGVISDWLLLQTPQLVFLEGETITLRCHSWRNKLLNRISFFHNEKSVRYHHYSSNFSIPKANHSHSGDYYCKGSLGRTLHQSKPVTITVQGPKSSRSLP

mouse FcγRIII [2] = molecular target: T2, mouse FcγRIII (mouse, UniProt P08508 31-215); experiment: as above
T2 construct: Extracellular domain with C-terminal His tag; also called mFcγRIII; mFcgRIII
T2 chain: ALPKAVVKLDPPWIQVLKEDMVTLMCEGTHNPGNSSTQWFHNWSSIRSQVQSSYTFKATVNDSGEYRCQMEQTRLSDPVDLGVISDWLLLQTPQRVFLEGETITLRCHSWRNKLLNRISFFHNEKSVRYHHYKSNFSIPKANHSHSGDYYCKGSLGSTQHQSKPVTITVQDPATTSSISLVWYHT

mouse FcγRII [3] = molecular target: T1, mouse FcγRII; experiment: SPR (Biacore T200); KD of H237-mIgG1/MRAL-k0 / KD of variant
mouse FcγRIII [4] = molecular target: T2, mouse FcγRIII; experiment: as above

B1: MB787 (antibody, mouse IgG1, kappa)
heavy: QVQLQESGPGLVKPSETLSLTCAVSGHSISHDHAWSWVRQPPGEGLEWIGFISYSGITNYNPSLQGRVTISRDNSKNTLYLQMNSLRAEDTAVYYCARSLARTTAMDYWGEGTLVTVSSAKTTPPSVYPLAPGSAAQTNSMVTLGCLVKGYFPEPVTVTWNSGSLSSGVHTFPAVLQSDLYTLSSSVTVPSSTWPSETVTCNVAHPASSTKVDKKIVPRDCGCKPCICEPNEVELVFIFPPKPKDVLTITLTPKVTCVVVDISKDDPEVQFSWFVDDVEVHTAQTQPREELFNSTFRSVSELPIMHQDWLNGKEFKCRVDSDAFPAPIEKTISKTKGRPKAPQVYTIPPPKEQMAKDKVSLTCMITDFFPEDITVEWQWNGQPAENYKNTQPIMDTDGSYFVYSKLNVQKSNWEAGNTFTCSVLHEGLHNHHTEKSLSHSPGK
light: not shown
notes: CH name; VH H237 + CH, L chain MRAL-k0; copies: 2 + 2
Relative mFcγRII-binding activity (MB630 = 1) (mouse FcγRII [1]): 3.55 fold | Relative mFcγRIII-binding activity (MB630 = 1) (mouse FcγRIII [2]): 5.57 fold | relative mFcγRII-binding activity (mIgG1 = 1) (mouse FcγRII [3]): 38.5 fold | relative mFcγRIII-binding activity (mIgG1 = 1) (mouse FcγRIII [4]): 0.96 fold

B2: MB790 (antibody, mouse IgG1, kappa)
heavy: QVQLQESGPGLVKPSETLSLTCAVSGHSISHDHAWSWVRQPPGEGLEWIGFISYSGITNYNPSLQGRVTISRDNSKNTLYLQMNSLRAEDTAVYYCARSLARTTAMDYWGEGTLVTVSSAKTTPPSVYPLAPGSAAQTNSMVTLGCLVKGYFPEPVTVTWNSGSLSSGVHTFPAVLQSDLYTLSSSVTVPSSTWPSETVTCNVAHPASSTKVDKKIVPRDCGCKPCICEPNEVELVFIFPPKPKDVLTITLTPKVTCVVVDISKDDPEVQFSWFVDDVEVHTAQTQPREEQFNSTFRSVSELPIMHQDWLNGKEFKCRVDSDAFPAPIERTISKTKGRPKAPQVYTIPPPKEQMAKDKVSLTCMITDFFPEDITVEWQWNGQPAENYKNTQPIMDTDGSYFVYSKLNVQKSNWEAGNTFTCSVLHEGLHNHHTEKSLSHSPGK
light: not shown
notes: as for B1
Relative mFcγRII-binding activity (MB630 = 1) (mouse FcγRII [1]): 3.08 fold | Relative mFcγRIII-binding activity (MB630 = 1) (mouse FcγRIII [2]): 4.09 fold | relative mFcγRII-binding activity (mIgG1 = 1) (mouse FcγRII [3]): 33.5 fold | relative mFcγRIII-binding activity (mIgG1 = 1) (mouse FcγRIII [4]): 0.7 fold

The remaining lines, values ahead:

Relative mFcγRII-binding activity (MB630 = 1) (mouse FcγRII [1]): 2.84 fold | Relative mFcγRIII-binding activity (MB630 = 1) (mouse FcγRIII [2]): 4.79 fold | relative mFcγRII-binding activity (mIgG1 = 1) (mouse FcγRII [3]): 30.9 fold | relative mFcγRIII-binding activity (mIgG1 = 1) (mouse FcγRIII [4]): 0.82 fold
B3: MB789 (antibody, mouse IgG1, kappa)
heavy: QVQLQESGPGLVKPSETLSLTCAVSGHSISHDHAWSWVRQPPGEGLEWIGFISYSGITNYNPSLQGRVTISRDNSKNTLYLQMNSLRAEDTAVYYCARSLARTTAMDYWGEGTLVTVSSAKTTPPSVYPLAPGSAAQTNSMVTLGCLVKGYFPEPVTVTWNSGSLSSGVHTFPAVLQSDLYTLSSSVTVPSSTWPSETVTCNVAHPASSTKVDKKIVPRDCGCKPCICEPNEVELVFIFPPKPKDVLTITLTPKVTCVVVDISKDDPEVQFSWFVDDVEVHTAQTQPREELFNSTFRSVSELPIMHQDWLNGKEFKCRVNSDAFPAPIERTISKTKGRPKAPQVYTIPPPKEQMAKDKVSLTCMITDFFPEDITVEWQWNGQPAENYKNTQPIMDTDGSYFVYSKLNVQKSNWEAGNTFTCSVLHEGLHNHHTEKSLSHSPGK
light: not shown
notes: as for B1

Relative mFcγRII-binding activity (MB630 = 1) (mouse FcγRII [1]): 2.06 fold | Relative mFcγRIII-binding activity (MB630 = 1) (mouse FcγRIII [2]): 3.46 fold | relative mFcγRII-binding activity (mIgG1 = 1) (mouse FcγRII [3]): 22.4 fold | relative mFcγRIII-binding activity (mIgG1 = 1) (mouse FcγRIII [4]): 0.59 fold
B4: MB788 (antibody, mouse IgG1, kappa)
heavy: QVQLQESGPGLVKPSETLSLTCAVSGHSISHDHAWSWVRQPPGEGLEWIGFISYSGITNYNPSLQGRVTISRDNSKNTLYLQMNSLRAEDTAVYYCARSLARTTAMDYWGEGTLVTVSSAKTTPPSVYPLAPGSAAQTNSMVTLGCLVKGYFPEPVTVTWNSGSLSSGVHTFPAVLQSDLYTLSSSVTVPSSTWPSETVTCNVAHPASSTKVDKKIVPRDCGCKPCICEPNEVELVFIFPPKPKDVLTITLTPKVTCVVVDISKDDPEVQFSWFVDDVEVHTAQTQPREELFNSTFRSVSELPIMHQDWLNGKEFKCRVDSAAFPAPIERTISKTKGRPKAPQVYTIPPPKEQMAKDKVSLTCMITDFFPEDITVEWQWNGQPAENYKNTQPIMDTDGSYFVYSKLNVQKSNWEAGNTFTCSVLHEGLHNHHTEKSLSHSPGK
light: not shown
notes: as for B1
